In patent US20240052045A1 (VIB VZW, published 2024):
Substitutions are numbered along the chain they refer to. In names and notes the source's numbering stands.

Key:
[1] = molecular target: T1, murine CCR8 (mouse, UniProt P56484 1-353); experiment: flow cytometry on HEK293T cells transiently transfected with mouse CCR8
T1 construct: Transiently expressed on HEK293/HEK293T cells or endogenously expressed on BW5147 cells; also called mouse CCR8; mCCR8
T1 sequence: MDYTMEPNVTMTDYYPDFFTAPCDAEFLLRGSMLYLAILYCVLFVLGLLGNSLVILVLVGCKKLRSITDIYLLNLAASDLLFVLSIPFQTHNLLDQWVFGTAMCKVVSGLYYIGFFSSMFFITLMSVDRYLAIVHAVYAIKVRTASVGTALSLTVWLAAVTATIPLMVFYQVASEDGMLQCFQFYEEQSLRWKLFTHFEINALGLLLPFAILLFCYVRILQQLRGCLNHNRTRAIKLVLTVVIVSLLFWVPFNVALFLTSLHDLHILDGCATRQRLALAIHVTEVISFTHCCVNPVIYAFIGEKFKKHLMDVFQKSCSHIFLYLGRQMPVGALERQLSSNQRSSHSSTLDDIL

[2] = molecular target: T2, human CCR8 (human, UniProt P51685 1-355); experiment: flow cytometry on HEK293 cells with hCCR8 and chimeric/deleted variants
T2 construct: Expressed on HEK293, HEK293T or CHO-K1 cells, stably or transiently transfected; also called hCCR8

[3] = molecular target: T2, human CCR8; experiment: flow cytometry competition with parental VHH-57
Source text: (§1) Multiple His6 tagged VHH variants were thus generated and evaluated by flow cytometry for their ability to compete for binding to hCCR8 with their FLAG3-His6 tagged parental counterpart (VHH-57, VHH-64 or VHH-67).

[4] = molecular target: T2, human CCR8; experiment: competitive binding, flow cytometry
[5] = molecular target: T1, murine CCR8; experiment: flow cytometry on cells transfected with mouse CCR8
[6] = molecular target: T2, human CCR8; experiment: flow cytometry competition with parental VHH-64
Source text: as §1

[7] = molecular target: T2, human CCR8; experiment: flow cytometry competition with parental VHH-67
Source text: as §1

T2 sequence (P51685 whole entry): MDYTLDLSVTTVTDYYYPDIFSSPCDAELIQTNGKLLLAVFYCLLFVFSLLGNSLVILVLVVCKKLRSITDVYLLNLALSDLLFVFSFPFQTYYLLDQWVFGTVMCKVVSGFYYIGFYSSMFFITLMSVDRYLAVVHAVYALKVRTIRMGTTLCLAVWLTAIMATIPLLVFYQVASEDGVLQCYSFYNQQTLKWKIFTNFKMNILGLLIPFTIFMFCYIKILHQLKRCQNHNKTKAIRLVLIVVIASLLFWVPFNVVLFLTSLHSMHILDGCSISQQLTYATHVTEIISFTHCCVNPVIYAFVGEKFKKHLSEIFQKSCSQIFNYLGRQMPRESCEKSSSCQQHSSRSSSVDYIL

B1: VHH-57 (VHH)
VHH: EVQLVESGGGLVQPGGSLRLSCTASGNIFSLLDMKWYRQAPGKQRELVADITSGGSTNYADPVKGRFTISRDNAKNTVYLQMNSLRPEDTAVYYCNAAPYYWGAYRRQESWGQGTLVTVSS
notes: Monovalent VHH purified from E. coli periplasm with C-terminal FLAG3 and His6 tags; not shown: C-terminal FLAG3 and His6 tags
B1: binds [1]; binds [2].

B2: VHH-119 (VHH)
VHH: B1 VHH with E1D, N27S, P62S
notes: also called VHH-57 with mutations E1D, N27S, P62S; not shown: C-terminal His6 tag (no FLAG3)
B2: binds [3].

B3: VHH-64 (VHH)
VHH: EVQLVESGGGLVQPGGSLRLSCAVSGGIRSIIPAGWYRQVPGKQRELVAAISTAGSADYADSVKGRFTISRDNTKNTAYLQMNSLRPEDTAVYYCNGRQTGWRTRVDYWGQGTLVTVSS
notes: as for B1
B3: binds [4]; binds [5].

B4: VHH-84 (VHH)
VHH: B3 VHH with E1D, V40A, T74A, A78V
notes: also called VHH-64 with mutations E1D, V40A, T74A, A78V; not shown: C-terminal His6 tag (no FLAG3)
B4: binds [6].

B5: VHH-120 (VHH)
VHH: DVQLVESGGGLVQPGGSLRLSCTVSGSIFSLRTVGWYRQAPGKQRELVATISAGGATDYADSVKGRFTISRDNAKNTVYLQMNSLRPEDTAVYYCYAQDSYKIYKSRYTQDYWGQGTLVTVSS
notes: also called VHH-67 with mutations E1D, V65G, V69I, G74A; not shown: C-terminal His6 tag (no FLAG3)
B5: binds [7].

B6: VHH-121 (VHH)
VHH: B5 VHH with D99Q
notes: also called VHH-67 with E1D, V65G, V69I, G74A, D99Q; not shown: C-terminal His6 tag (no FLAG3)
B6: binds [7].

B7: VHH-122 (VHH)
VHH: B5 VHH with S100T
notes: also called VHH-67 with E1D, V65G, V69I, G74A, S100T; not shown: C-terminal His6 tag (no FLAG3)
B7: binds [7].

B8: VHH-67 (VHH)
VHH: B5 VHH with D1E, G65V, I69V, A74G
notes: as for B1
B8: binds [1]; binds [2].
